This note sets out measurements from patent publication US7276582 (JAPAN SCIENCE AND TECHNOLOGY AGENCY, dated 2007).

To fix the notation:
B1: pGAD-GL-ΔC1 (CARP; 1-127 amino acids) (other)
chain: MADLSFIEDAVAFPEKEEDEEEEEEEGVEWGYEEGVEWGLVFPDANGEYQSPINLNSREARYDPSLLDVRLSPNYVVCRDCEVTNDGHTIQVILKSKSVLSGGPLPGGQEFELYEVRFHWGRENQRG
notes: Yeast two-hybrid truncation construct; not shown: fusion partner encoded by vector pGAD-GL
B2: pGAD-GL-ΔC8 (CARP; 121-291 amino acids) (other)
chain: GRENQRGSEHTVNFKAFPMELHLIHWNSTLFGSIDEAVGKPHGIAIIALFVQIGKEHVGLKAVTEILQDIQYKGKSKTIPCFNPNTLLPDPLLRDYWVYEGSLTIPPCSEGVTWILFRYPLTISQMQIEEFRRLRTHVKGVELVEGCDGILGDNFRPTQPLSDRVIRAAFQ
notes: as for B1
B3: pGAD-GL-ΔC2 (CARP; 1-147 amino acids) (other)
chain: MADLSFIEDAVAFPEKEEDEEEEEEEGVEWGYEEGVEWGLVFPDANGEYQSPINLNSREARYDPSLLDVRLSPNYVVCRDCEVTNDGHTIQVILKSKSVLSGGPLPGGQEFELYEVRFHWGRENQRGSEHTVNFKAFPMELHLIHWN
notes: as for B1
B4: pGAD-GL-ΔC4 (CARP; 1-180 amino acids) (other)
chain: MADLSFIEDAVAFPEKEEDEEEEEEEGVEWGYEEGVEWGLVFPDANGEYQSPINLNSREARYDPSLLDVRLSPNYVVCRDCEVTNDGHTIQVILKSKSVLSGGPLPGGQEFELYEVRFHWGRENQRGSEHTVNFKAFPMELHLIHWNSTLFGSIDEAVGKPHGIAIIALFVQIGKEHVGL
notes: as for B1
B5: pGAD-GL-ΔC3 (CARP; 1-170 amino acids) (other)
chain: MADLSFIEDAVAFPEKEEDEEEEEEEGVEWGYEEGVEWGLVFPDANGEYQSPINLNSREARYDPSLLDVRLSPNYVVCRDCEVTNDGHTIQVILKSKSVLSGGPLPGGQEFELYEVRFHWGRENQRGSEHTVNFKAFPMELHLIHWNSTLFGSIDEAVGKPHGIAIIALF
notes: as for B1
B6: pGAD-GL-ΔC6 (CARP; 1-234 amino acids) (other)
chain: MADLSFIEDAVAFPEKEEDEEEEEEEGVEWGYEEGVEWGLVFPDANGEYQSPINLNSREARYDPSLLDVRLSPNYVVCRDCEVTNDGHTIQVILKSKSVLSGGPLPGGQEFELYEVRFHWGRENQRGSEHTVNFKAFPMELHLIHWNSTLFGSIDEAVGKPHGIAIIALFVQIGKEHVGLKAVTEILQDIQYKGKSKTIPCFNPNTLLPDPLLRDYWVYEGSLTIPPCSEGVTW
notes: as for B1
B7: pGAD-GL-ΔC9 (CARP; 184-291 amino acids) (other)
chain: TEILQDIQYKGKSKTIPCFNPNTLLPDPLLRDYWVYEGSLTIPPCSEGVTWILFRYPLTISQMQIEEFRRLRTHVKGVELVEGCDGILGDNFRPTQPLSDRVIRAAFQ
notes: as for B1
B8: pGAD-GL-ΔC5 (CARP; 1-217 amino acids) (other)
chain: MADLSFIEDAVAFPEKEEDEEEEEEEGVEWGYEEGVEWGLVFPDANGEYQSPINLNSREARYDPSLLDVRLSPNYVVCRDCEVTNDGHTIQVILKSKSVLSGGPLPGGQEFELYEVRFHWGRENQRGSEHTVNFKAFPMELHLIHWNSTLFGSIDEAVGKPHGIAIIALFVQIGKEHVGLKAVTEILQDIQYKGKSKTIPCFNPNTLLPDPLLRDYW
notes: as for B1
B9: carbonic anhydrase-related protein (CARP), full-length, yeast two-hybrid prey in pGAD-GL (other)
chain: MADLSFIEDAVAFPEKEEDEEEEEEEGVEWGYEEGVEWGLVFPDANGEYQSPINLNSREARYDPSLLDVRLSPNYVVCRDCEVTNDGHTIQVILKSKSVLSGGPLPGGQEFELYEVRFHWGRENQRGSEHTVNFKAFPMELHLIHWNSTLFGSIDEAVGKPHGIAIIALFVQIGKEHVGLKAVTEILQDIQYKGKSKTIPCFNPNTLLPDPLLRDYWVYEGSLTIPPCSEGVTWILFRYPLTISQMQIEEFRRLRTHVKGVELVEGCDGILGDNFRPTQPLSDRVIRAAFQ
notes: 13 positive clones from a mouse brain cDNA library; they contain different lengths of 5'UTR of CARP cDNA followed by a full-length coding region in frame; also called mouse CARP; not shown: fusion partner encoded by the library vector pGAD-GL (and in-frame 5'UTR of differing length); not described in the fili
B10: CARP of the cytosolic fraction of mouse cerebellum (other)
chain: B9 chain
notes: Endogenous protein in a tissue fraction, detected by Western blotting with anti-CARP polyclonal antibody; also called endogenous CARP

T1 sequence (P11881 1387-1647): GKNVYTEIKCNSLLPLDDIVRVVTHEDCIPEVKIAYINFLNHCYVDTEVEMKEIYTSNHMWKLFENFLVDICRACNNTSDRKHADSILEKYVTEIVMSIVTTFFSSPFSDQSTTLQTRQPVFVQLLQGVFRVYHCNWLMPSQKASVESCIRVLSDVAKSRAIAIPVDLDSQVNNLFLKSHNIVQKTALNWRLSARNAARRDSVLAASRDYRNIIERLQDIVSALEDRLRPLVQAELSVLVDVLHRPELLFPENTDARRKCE
T2 sequence (P08515 whole entry, the tested form may be a part): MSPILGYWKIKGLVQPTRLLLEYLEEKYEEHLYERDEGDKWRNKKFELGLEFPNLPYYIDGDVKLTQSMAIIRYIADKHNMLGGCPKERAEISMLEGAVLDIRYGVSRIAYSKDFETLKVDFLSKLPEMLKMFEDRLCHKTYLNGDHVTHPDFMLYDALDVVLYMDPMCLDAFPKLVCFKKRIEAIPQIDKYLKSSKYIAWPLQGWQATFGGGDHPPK

The first test addresses T1, MD2 bait construct (mIP3R1: 1387-1647 amino acids) in pGBT9 (mouse, UniProt P11881 1387-1647).
T1 construct: also called IP3R1 modulatory domain bait 2; not shown: fusion partner encoded by the bait vector pGBT9 and primer-encoded linker
As to the kind of experiment: yeast two-hybrid beta-gal assay. As for the experimental part: To determine the respective interaction domains of CARP and IP_3R1, truncated mutants of both genes were prepared and analyzed using yeast two-hybrid system. […] Interactions between CARP mutants and MD2, CARP and IP_3R1 mutants were analyzed by β-gal assay by the yeast two-hybrid system. The prepared mutant and results of β-gal assay in the yeast two-hybrid system (n=3) are shown in FIG. 5. β-gal assay was evaluated by the time of blue colony appearance, i.e., blue colony appears within 30 min (+++), 2 h (++) and 8 hr (+).
Yeast two-hybrid assay in the following examples was conducted using MATCHJMAKER™ Two-Hybrid system according to the manufacturer's protocol (Clontech Laboratories Inc., Palo Alto, Calif., USA).
As for B1, the binding result is on record as “no binding”.

For B2, the binding result is recorded as “no binding”. Regarding B3, the binding result is reported as “no binding”. For the molecule B4, the binding result is on record as “no binding”. B5: the binding result is listed as “no binding”.

With B6, the binding result is recorded as “no binding”. Still for that read-out and setting: with B7 the entry was “no binding”. In the case of B8, the binding result is recorded as “no binding”.

In another test the target is T1, MD2 bait construct (mIP3R1: 1387-1647 …). Nature of the test: yeast two-hybrid screen of a mouse brain cDNA library with MD2 as bait.
As to B9, the binding result was “binds”.

A further test addresses T2, GST (UniProt P08515 1-218 = GST, limits assumed).
T2 construct: Control for the GST fusion proteins; its source is not described; also called GST alone; glutathione S-transferase
As to the kind of experiment: GST pull-down from mouse cerebellar cytosolic fraction, Western blot with anti-CARP antibody. The source says:
Next, the inventors of the present application examined the interaction between CARP and IP_3R1 by means of a pull-down method in order to obtain further evidence for the interaction by biochemical methods. The inventors first developed expression system in Sf9 cells, and made IP_3R1 soluble by removing the channel domain. The soluble IP_3R1, designated GST-EL, covers both the ligand binding domain and modulatory domain (amino acids 1-2217 Of mIP_3R1) and has GST in its N terminus. Mouse cerebellar cytosolic fraction was incubated with GST-EL or GST, and binding of CARP to the recombinant proteins was analyzed by immunoblotting with anti-CARP antibody. The results are shown in photographs of FIG. 4 which are substituted for drawings.
Adult mouse cerebella were homogenized in 10 mM HEPES (pH 7.4), 320 mM Sucrose, 2 mM EDTA, 1 mM 2-mercaptoethanol, and protease inhibitors and the homogenate was centrifuged at 1,000× g for 10 min. The supernatant was centrifuged at 100,000× g for 60 min to obtain the cytosolic fraction (the supernatant) and the crude microsome (the pellet). The cytosolic fraction was added with 100 mM NaCl, and incubated with 20 μg of GST-EL or GST for 2 hours at 4° C. […] The eluted proteins were analyzed by Western blotting with anti-CARP antibody.
(A western blot detects proteins with antibodies after separation by electrophoresis.)
Consider B10, for which the binding result is “no binding (tested: 20 µg of GST)”.
